The record followed here is publication PMC10504348.

The target in experiment [1] is Human respiratory syncytial virus nucleoprotein N, full-length wild type (strain Long), as N-RNA assemblies (Human respiratory syncytial virus (strain Long)) (UniProt P03418). Kind of experiment: cryo-EM structure; purified N-RNA assemblies in TEN buffer (50 mM Tris-HCl, 10 mM EDTA, 150 mM NaCl, pH 7.4), plunge-frozen on holey carbon grids; Glacios microscope, K2 detector; assemblies classified and reconstructed separately.

The target in experiment [2] is C-terminally truncated HRSV nucleoprotein N1-370 (strain Long), as N-RNA assemblies (Human respiratory syncytial virus (strain Long)) (UniProt P03418). Described as above.

Where “and” joins values, the source holds several entries; their conditions need not be identical. Equal values may be shown once.

As a reminder, the stoichiometry N is the number of molecules, sites or subunits per partner or assembly.

In the case of “Human respiratory syncytial virus nucleoprotein N, full-length wild type (strain Long), as N-RNA assemblies (from UniProt P03418 1-391) (natural protein)”, the stoichiometry N in experiment [1] was 10 and 11.

In turn, “C-terminally truncated HRSV nucleoprotein N1-370 (strain Long), as N-RNA assemblies (from UniProt P03418 1-370) (domain or fragment)” yielded a stoichiometry N in experiment [2] of 10.
